Reference: patent publication US20140170162A1, “PRESERVATION OF THE NEUROMUSCULAR JUNCTION (NMJ) AFTER TRAUMATIC NERVE INJURY” (The Regents of the University of California, priority 2012, published 2014)

Experiments:
[1] = biological target: His-labeled rat recombinant agrin (R&D Systems) (UniProt P25304)
[2] = test system: C212 myotubes; experiment: In vitro assessment of AChR clustering in myotubes; assay type: cell-based; details: FIG. 3A, B
Description: C212 cells were purchased from ATCC (Manassas, Va.). Cells were expanded and differentiated into myotubes as previously described. Five days following differentiation, myotubes were then treated overnight with […] His-labeled rat recombinant agrin (R&D Systems, Minneapolis, Minn.) or […] rat recombinant agrin incubated with […] MMP3 active subunit (Millipore, Billerica, Mass.) for 72 hours. Western blot was performed to confirm cleavage of agrin. After treatment of myotubes with Alexa 555-conjugated a-bungarotoxin (a-BTX; Invitrogen, Carlsbad, Calif.; 1:1,000), samples were fixed according to standard procedures for immunohistochemistry. Ten random fields at 40 magnification were evaluated by a blinded observer for AChR clustering under fluorescent microscopy as previously described. An AChR cluster was defined as an aggregate of at least 4 lm2. Three samples from each treatment group were analyzed.
Agrin was cleaved by MMP3, resulting in a 60 kDa fragment as detected by silver stain.

Sequence of UniProt P25304 (P25304 1153-1959): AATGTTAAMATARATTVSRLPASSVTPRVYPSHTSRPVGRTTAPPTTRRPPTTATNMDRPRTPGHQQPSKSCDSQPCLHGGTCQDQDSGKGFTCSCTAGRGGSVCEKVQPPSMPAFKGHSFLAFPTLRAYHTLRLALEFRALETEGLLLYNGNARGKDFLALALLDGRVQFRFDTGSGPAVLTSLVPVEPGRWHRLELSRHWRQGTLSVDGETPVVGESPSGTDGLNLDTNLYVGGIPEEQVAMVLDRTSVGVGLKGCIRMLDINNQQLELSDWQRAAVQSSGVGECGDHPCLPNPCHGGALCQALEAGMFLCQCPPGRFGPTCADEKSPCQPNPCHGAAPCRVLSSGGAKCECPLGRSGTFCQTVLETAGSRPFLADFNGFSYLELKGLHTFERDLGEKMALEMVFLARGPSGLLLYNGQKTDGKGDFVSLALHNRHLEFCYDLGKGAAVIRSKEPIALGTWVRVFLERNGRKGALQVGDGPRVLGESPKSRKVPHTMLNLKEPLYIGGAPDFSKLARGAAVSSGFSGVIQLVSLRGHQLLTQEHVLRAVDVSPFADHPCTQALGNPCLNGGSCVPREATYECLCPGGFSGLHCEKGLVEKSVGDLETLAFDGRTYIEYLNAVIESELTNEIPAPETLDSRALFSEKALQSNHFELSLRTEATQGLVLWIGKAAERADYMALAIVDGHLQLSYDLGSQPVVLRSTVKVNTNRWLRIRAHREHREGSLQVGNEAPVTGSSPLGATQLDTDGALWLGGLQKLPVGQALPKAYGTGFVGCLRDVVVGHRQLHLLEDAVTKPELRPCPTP

Row | Substance | AChR clusters/field in C212 myotubes (agrin processed by MMP3, against 7.30 for agrin alone) [1] | cleavage of agrin (silver stain) [1] | degradation of 90 kDa agrin after 72 hours [1] | AChR clustering (images) [2]
1 | MMP3 active subunit (Millipore) | 7.30 6 0.578 clusters/field vs 2.20 6 0.467 clusters/field | Agrin was cleaved by MMP3, resulting in a 60 kDa fragment as detected by silver stain | Treatment with MMP3 for 72 hours led to complete degradation of 90 kDa agrin | 
2 | agrin: His-labeled rat recombinant agrin (R&D Systems), approximately 90 kDa |  |  |  | clustering
